These results are taken from patent publication US20180141972.

Data set [1] addresses ePDZ-b-WELQ-OFP fusion substrate.
The target in data set [2] is HIS-ePDZ-b-WELQ-OFP fusion substrate protein.
Data set [3] concerns the target ePDZ-b-ENLYFQ-OFP fusion protein.
Data set [4] deals with HIS-ePDZ-b-ENLYFQ-OFP fusion substrate protein.
In data set [5] the target is T1, Spycatcher-WELQ-Tem1 fusion protein (Spycatcher followed by a SplB protease site with a P1' methionine and the lactamase Tem1), P62593.
T1 chain: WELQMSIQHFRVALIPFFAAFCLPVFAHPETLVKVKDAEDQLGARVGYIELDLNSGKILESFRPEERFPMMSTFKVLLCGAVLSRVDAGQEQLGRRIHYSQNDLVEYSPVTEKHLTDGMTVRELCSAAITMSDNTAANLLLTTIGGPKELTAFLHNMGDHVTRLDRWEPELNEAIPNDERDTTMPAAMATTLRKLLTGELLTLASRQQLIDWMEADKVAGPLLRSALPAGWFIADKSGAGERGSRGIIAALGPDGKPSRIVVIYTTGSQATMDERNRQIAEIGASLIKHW

Data set [6] has as its target Spycatcher-WELQ-LSSmOrange fusion protein.

B1: SplB protease with full-length ARVCF peptide tag at C-terminus (protein)
chain: ENNVTKVKDTNIFPYTGVVAFKSATGFVVGKNTILTNKHVSKNYKVGDRITAHPNSDKGNGGIYSIKKIINYPGKEDVSVIQVEERAIERGPKGFNFNDNVTPFKYAAGAKAGERIKVIGYPHPYKNKYVLYESTGPVMSVEGSSIVYSAHTESGNSGSPVLNSNNELVGIHFASDVKNDDNRNAYGVYFTPEIKKFIAENIDKPQPVDSWV
On to B1, for which, in data set [1], the “cleavage efficiency at high protease concentration (gel, FIG. 5, lanes 2-5)” value (shortened to “cleavage efficiency”) was “At high protease concentration, no variation was observed in cleavage efficiency”; the “cleavage of the fusion substrate to native OFP (gel, FIG. 5)” value is “this was notably more efficient for SplB-AP compared to SplB-COM and SplB fused to a control peptide that does not interact with ePDZ-b (SplB-CON)”; the “cleavage to yield native OFP (gel, FIG. 5)” value (“cleavage to yield native OFP” for short) is “These tagged proteases all showed improved cleavage to yield native OFP (red arrow) compared to SplB protease tagged with a non-specific C-terminal peptide (SplB-CON) and commercial nontagged SplB protease (SplB-COM)”.

B2: HIS-SplB-ARVC-pep (protein)
chain: B1 chain
As to B2, the “on-column cleavage to native OFP (gel, FIG. 7)” value in data set [2] is “Addition of 30 mM imidazole alleviated this constraint, resulting in improved cleavage efficiencies using histidine tagged ePDZ-b -WELQ-OFP and SplB-AP proteins”.

B3: wild-type TEV protease, untagged (protein)
chain: GESLFKGPRDYNPISSTICHLTNESDGHTTSLYGIGFGPFIITNKHLFRRNNGTLLVQSLHGVFKVKNTTTLQQHLIDGRDMIIIRMPKDFPPFPQKLKFREPQREERICLVTTNFQTKSMSSMVSDTSCTFPSSDGIFWKHWIQTKDGQCGSPLVSTRDGFIVGIHSASNFTNTNNYFTSVPKNFMELLTNQEAQQWVSGWRLNADSVLWGGHKVFMSKPEEPFQPVKEATQLMNELVYSQ
In the case of B3, in data set [3], the “cleavage of the fusion substrate to native OFP (gel, FIG. 6A)” value is on record as “wild-type TEV protease did not show significant cleavage even after 24 hours incubation” and the “generation of native OFP over time (gel, FIG. 6A)” value is “Native OFP (arrowed red) was rapidly generated through use of TEV-AP4 compared to endogenous TEV”.

B4: HIS-TEV (protein)
chain: B3 chain
Regarding B4, the “yield of native OFP after on-column cleavage (gel, FIG. 8, lanes 6 and 15)” value in data set [4] is “the yield of native OFP was significantly increased when histidine tagged TEV-AP4 was used compared to histidine tagged TEV”.

B5: SplB protease with ARVCF peptide truncated by 4 amino acids (DSWV) (protein)
chain: ENNVTKVKDTNIFPYTGVVAFKSATGFVVGKNTILTNKHVSKNYKVGDRITAHPNSDKGNGGIYSIKKIINYPGKEDVSVIQVEERAIERGPKGFNFNDNVTPFKYAAGAKAGERIKVIGYPHPYKNKYVLYESTGPVMSVEGSSIVYSAHTESGNSGSPVLNSNNELVGIHFASDVKNDDNRNAYGVYFTPEIKKFIAENIDKDSWV
As to B5, in data set [1], the “cleavage activity at sub-stoichiometric protease (gel, FIG. 5, lanes 16, 18-19)” value is “At sub-stoichiometric amounts, 3 and 4 amino acid truncations of the ARVCF peptide showed clear improvements in activity compared to full-length peptide”; the “cleavage efficiency” value is recorded as “At high protease concentration, no variation was observed in cleavage efficiency”; the “cleavage to yield native OFP” value was “These tagged proteases all showed improved cleavage to yield native OFP (red arrow) compared to SplB protease tagged with a non-specific C-terminal peptide (SplB-CON) and commercial nontagged SplB protease (SplB-COM)”.

B6: SplB protease with shortened ARVC-pep tag (the least shortened of the 3 progressively shortened peptide tags) (protein)
chain: ENNVTKVKDTNIFPYTGVVAFKSATGFVVGKNTILTNKHVSKNYKVGDRITAHPNSDKGNGGIYSIKKIINYPGKEDVSVIQVEERAIERGPKGFNFNDNVTPFKYAAGAKAGERIKVIGYPHPYKNKYVLYESTGPVMSVEGSSIVYSAHTESGNSGSPVLNSNNELVGIHFASDVKNDDNRNAYGVYFTPEIKKFIAENIDK
B6: in data set [1], the “cleavage efficiency” value was “At high protease concentration, no variation was observed in cleavage efficiency”; the “cleavage to yield native OFP” value is “These tagged proteases all showed improved cleavage to yield native OFP (red arrow) compared to SplB protease tagged with a non-specific C-terminal peptide (SplB-CON) and commercial nontagged SplB protease (SplB-COM)”.

B7: Commercial SplB protease, non-tagged (protein)
chain: B6 chain
For the protein B7, in data set [5], the “cleavage of the fusion protein to native Tem1 (gel, FIG. 3)” value is reported as “Commercial SplB protease, lacking the fused spytag, was only able to produce minimal native Tem1”. Further, in data set [6], the “cleavage of the fusion protein to native LSSmOrange (gel, FIG. 4)” value is reported as “A similar experiment with LSSmOrange replacing Tem1 yielded the same result”. For the same protein, in data set [1], the “cleavage of the fusion substrate to native OFP (gel, FIG. 5)” value is reported as “Neither SplB-COM or Spl-CON was able to completely digest the fusion substrate”.

B8: TEV protease fused to the optimised 4-amino acid truncated ARVCF peptide (protein)
chain: GESLFKGPRDYNPISSTICHLTNESDGHTTSLYGIGFGPFIITNKHLFRRNNGTLLVQSLHGVFKVKNTTTLQQHLIDGRDMIIIRMPKDFPPFPQKLKFREPQREERICLVTTNFQTKSMSSMVSDTSCTFPSSDGIFWKHWIQTKDGQCGSPLVSTRDGFIVGIHSASNFTNTNNYFTSVPKNFMELLTNQEAQQWVSGWRLNADSVLWGGHKVFMSKPEEPFQPVKEATQLMNELVYSQDSWV
As for B8, in data set [3], the “cleavage of the fusion substrate to native OFP (gel, FIG. 6A)” value was “The results show clearly improved cleavage when TEV is fused to the optimised 4-amino acid truncated ARVCF peptide (TEV-AP4)”; the “generation of native OFP over time (gel, FIG. 6A)” value was “Native OFP (arrowed red) was rapidly generated through use of TEV-AP4 compared to endogenous TEV”; the “incubation time to near complete cleavage (gel, FIG. 6A)” value was “near completion around 2.5 hours”; the “incubation time to notable cleavage (gel, FIG. 6A)” value is recorded as “Notable cleavage was observed after only 30 minutes incubation”.

B9: HIS-TEV-AP4 (protein)
chain: B8 chain
On to B9, for which the “yield of native OFP after on-column cleavage (gel, FIG. 8, lanes 6 and 15)” value in data set [4] was “the yield of native OFP was significantly increased when histidine tagged TEV-AP4 was used compared to histidine tagged TEV”.
